Publication PMC7460845, “A Fungal Ascorbate Oxidase with Unexpected Laccase Activity” (International Journal of Molecular Sciences, 2020)

Columns and labels:
[1] = substrate: CCn1c(=NN=c2sc3cc(S(=O)(=O)O)ccc3n2CC)sc2cc(S(=O)(=O)O)ccc21; test: spectrophotometric ABTS oxidation, plate reader, Lineweaver-Burk; format: biochemical, Aspergillus flavus; details: 0.1 M citrate buffer pH 3.4, 25 °C, 0.5 to 20 mM substrate, oxygen as co-substrate
purified protein = substrate: O=C1O[C@H]([C@@H](O)CO)C(O)=C1O; test: purified protein; format: biochemical, Aspergillus flavus; details: pH 5.0, 30 °C, 0.05 to 1 mM substrate, oxygen as co-substrate

B1: Af_AO1 (Aspergillus flavus NRRL3357) (protein)
chain: HLVLHDDSFQPDHILRVTAQDVNQACMDRYSVLINGSLPGPQLNIQEGKVNWIRVYNDMEDLNVTMHWHGLSAFTAPFSDGTPMASQWPIPPGHFFDYEVRPEVGYAGTYFYHSHVGFQALTAWGALIVESAQPSPYQYDEERIIALSDFFTKTDEEIENGLTSTNFTWSGETSAVLVNGQGRLATNATGSCKLAAISVEPGKTYRLRFIGATALSFVSISLESHDVLEIIEADGHYTKPVNTSYLQISSGQRYSVLLKAKTEAELQQAKSRQFYFQLTTMGRPTVLTTFAVLEYPSPTTTDLITVPVTPPLPVANITYGWLDYTLEPYYPDLDFPTVEEVTRRIIINVHQNISDRTVWLQNGYDWVETFPKSPYLVDIYAGTLDLDASYKRAIASGYAFDNQTRLFPAKMGEVLEIVWQNQGAVSNGGVENHPFHAHGRHFYDIGGGDGLYNLTENEARLKGTHPVIRDTTMLYAYRKTTTALEPSGWRAWRIRVTAAGVWMVHCHVLQHMLMGMQTAFAFGDQTAIKAQSGTPAEGYLTYGGSAYGNVTHFPPVKHFFN
notes: natural signal peptide removed, no tag; codon-optimized gene in pPicZalphaB, secreted from Pichia pastoris KM71H; model target 561 residues
- Km [1]: 1890 ± 120 µM
- Km (purified protein): 160 ± 30 µM
